Consider two substances from publication PMC9546846.

For experiment [1], the target named is N-cadherin (UniProt P15116). Conditions: cited from earlier work.
In experiment [2] the target is ddFP-B1-inserted NCad (NCad-B1) (mouse) (UniProt P15116). Nature of the experiment: split reporter (BiFC, NanoBiT); dimerization-dependent fluorescent protein; time-lapse of HEK293T cells each expressing one component, from seeding for 120 min, then 10 mM EGTA for 120 min; washout of EGTA in a further experiment.
Experiment [3] addresses ddFP-B3-inserted NCad (NCad-B3) (mouse) (UniProt P15116). Described as above.
The target in experiment [4] is ddFP-B1-inserted NCad (NCad-B1) (mouse) (UniProt P15116). Nature of the experiment: split reporter (BiFC, NanoBiT); dimerization-dependent fluorescent protein; HEK293T cells co-expressing both components (mCherry-NLS) co-cultured with cells expressing NCad without fluorescent protein (EBFP2-NLS); signal at R-R against B-R cell adhesion sites.
Experiment [5] addresses ddFP-B3-inserted NCad (NCad-B3) (mouse) (UniProt P15116). Described as above.

Take N-cadherin (from UniProt P15116): the Kd in experiment [1] was 25 µM.
On to “ddGFP-A-inserted NCad (NCad-GA) (from UniProt P15116 26-311; P15116 312-906)”, for which the time to 50% of the signal after addition of 10 mM EGTA in experiment [2] and in experiment [3] was 50 min each time. The figures for the contrast of signal between R-R and B-R cell adhesion sites in experiment [4] and in experiment [5] were 5.31 and 7.72, respectively.

For orientation: Kd means the concentration at which binding is half-saturated.
